Source: paper PMC6722581

Legend:
[1] = biological target: SLAM (Canis lupus familiaris) (UniProt Q95MM9); conditions: cited from earlier work
[2] = biological target: head domain of measles virus hemagglutinin, Edmonston vaccine strain (measles virus, Edmonston strain) (UniProt P08362); assay: SPR
[3] = biological target: head domain of measles virus hemagglutinin, IC-B wild-type strain (measles virus, IC-B strain) (UniProt Q786F2); assay: SPR
Chain of UniProt Q786F2 (Q786F2 149-617): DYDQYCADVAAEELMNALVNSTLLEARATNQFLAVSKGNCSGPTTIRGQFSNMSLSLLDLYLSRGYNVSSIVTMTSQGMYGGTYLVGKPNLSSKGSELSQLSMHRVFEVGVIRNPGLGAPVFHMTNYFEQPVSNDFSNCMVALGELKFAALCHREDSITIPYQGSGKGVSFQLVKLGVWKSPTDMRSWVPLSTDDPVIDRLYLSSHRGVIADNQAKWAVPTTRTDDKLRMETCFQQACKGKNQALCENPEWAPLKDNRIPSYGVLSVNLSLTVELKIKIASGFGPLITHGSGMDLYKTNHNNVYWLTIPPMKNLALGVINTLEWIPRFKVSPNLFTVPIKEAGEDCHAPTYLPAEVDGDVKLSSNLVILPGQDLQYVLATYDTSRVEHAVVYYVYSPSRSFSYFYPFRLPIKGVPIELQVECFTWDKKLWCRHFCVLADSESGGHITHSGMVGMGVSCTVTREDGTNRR

Chain of UniProt P08362 (P08362 149-617): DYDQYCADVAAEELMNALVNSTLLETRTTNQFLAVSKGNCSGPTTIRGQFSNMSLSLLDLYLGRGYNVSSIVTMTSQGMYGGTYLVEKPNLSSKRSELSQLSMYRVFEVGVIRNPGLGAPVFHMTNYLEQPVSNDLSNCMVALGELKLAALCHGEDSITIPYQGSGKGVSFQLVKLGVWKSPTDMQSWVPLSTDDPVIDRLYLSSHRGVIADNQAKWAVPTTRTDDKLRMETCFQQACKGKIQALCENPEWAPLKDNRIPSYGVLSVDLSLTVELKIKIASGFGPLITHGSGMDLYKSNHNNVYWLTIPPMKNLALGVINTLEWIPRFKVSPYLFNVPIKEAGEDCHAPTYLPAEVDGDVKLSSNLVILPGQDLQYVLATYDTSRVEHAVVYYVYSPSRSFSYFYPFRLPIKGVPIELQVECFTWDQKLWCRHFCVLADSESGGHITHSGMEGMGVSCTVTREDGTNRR
Chain of UniProt Q95MM9 (Q95MM9 27-342): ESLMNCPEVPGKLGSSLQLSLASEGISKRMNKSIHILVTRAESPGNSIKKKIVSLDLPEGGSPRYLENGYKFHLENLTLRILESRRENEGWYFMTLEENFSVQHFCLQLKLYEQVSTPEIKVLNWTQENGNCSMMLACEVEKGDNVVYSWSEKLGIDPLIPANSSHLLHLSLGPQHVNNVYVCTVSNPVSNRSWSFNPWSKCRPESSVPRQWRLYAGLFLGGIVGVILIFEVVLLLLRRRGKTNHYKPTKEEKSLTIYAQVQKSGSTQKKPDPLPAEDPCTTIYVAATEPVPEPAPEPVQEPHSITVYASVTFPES

Substance | Kd [1] [nM] | Kd [2] [nM] | koff [2] [s⁻¹] | kon [2] [M⁻¹ s⁻¹] | Kd [3] [nM] | koff [3] [s⁻¹] | kon [3] [M⁻¹ s⁻¹]
CDV-A75/17 hemagglutinin (from UniProt Q65999) | 8000 | – | – | – | – | – | –
soluble SLAM ectodomain (V-set and C2) from cotton-top tamarin (domain or fragment) | – | 46.7 | 0.000952 | 20400 | 243 | 0.00241 | 9890
